{"source": "paper PMC10899662", "about": "“TopBP1 utilises a bipartite GINS binding mode to support genome replication” (Nature Communications, 2024)", "molecules": {"B1": {"name": "TopBP1-BRCT0-5-WT: recombinant TopBP1 amino acids 1–766, strep-tagged (protein)", "chain": "MSRNDKEPFFVKFLKSSDNSKCFFKALESIKEFQSEEYLQIITEEEALKIKENDRSLYICDPFSGVVFDHLKKLGCRIVGPQVVIFCMHHQRCVPRAEHPVYNMVMSDVTISCTSLEKEKREEVHKYVQMMGGRVYRDLNVSVTHLIAGEVGSKKYLVAANLKKPILLPSWIKTLWEKSQEKKITRYTDINMEDFKCPIFLGCIICVTGLCGLDRKEVQQLTVKHGGQYMGQLKMNECTHLIVQEPKGQKYECAKRWNVHCVTTQWFFDSIEKGFCQDESIYKTEPRPEAKTMPNSSTPTSQINTIDSRTLSDVSNISNINASCVSESICNSLNSKLEPTLENLENLDVSAFQAPEDLLDGCRIYLCGFSGRKLDKLRRLINSGGGVRFNQLNEDVTHVIVGDYDDELKQFWNKSAHRPHVVGAKWLLECFSKGYMLSEEPYIHANYQPVEIPVSHKPESKAALLKKKNSSFSKKDFAPSEKHEQADEDLLSQYENGSSTVVEAKTSEARPFNDSTHAEPLNDSTHISLQEENQSSVSHCVPDVSTITEEGLFSQKSFLVLGFSNENESNIANIIKENAGKIMSLLSRTVADYAVVPLLGCEVEATVGEVVTNTWLVTCIDYQTLFDPKSNPLFTPVPVMTGMTPLEDCVISFSQCAGAEKESLTFLANLLGASVQEYFVRKSNAKKGMFASTHLILKERGGSKYEAAKKWNLPAVTIAWLLETARTGKRADESHFLIENSTKEERSLETEITNGINLNSDTAEHP", "modifications": "left off: Strep, C-terminal, kept", "notes": "recombinant TopBP1 amino acids 1–766, strep-tagged"}, "B2": {"name": "TopBP1-B4mut: Val590, Thr606 and Val610 mutated to glutamate, arginine and glutamate (protein)", "chain": "B1 chain with V590E, T606R, V610E", "modifications": "left off: Strep, C-terminal, kept"}, "B3": {"name": "TopBP1-Gpp: TopBP1-BRCT0-5, central leucine-leucine motif mutated to two consecutive prolines (protein)", "chain": "B1 chain with L490P, L491P", "modifications": "left off: Strep, C-terminal, kept", "notes": "TopBP1-BRCT0-5, central leucine-leucine motif mutated to two consecutive prolines"}}, "key": {"[1]": {"test_system": "DNA replication in Xenopus egg extracts", "experiment": "Replication assay in TopBP1-immunodepleted Xenopus egg extract (α-32P-dCTP incorporation)", "format": "biochemical, Xenopus laevis", "conditions": "for ability to support replication (words): 6 ng/µl recombinant TopBP1 added to TopBP1-immunodepleted extract, 23 °C", "method": "Fig. 5 Both GINS binding surfaces in TopBP1 cooperate in supporting genome replication. a Immobilized recombinant Flag-GINS or Flag peptide-coupled beads were used to pulldown the indicated recombinant TopBP1-BRCT0-5-strep versions (Figs. 1a and 3a) using 100 mM NaAc in the binding buffer. The pulldown was analysed by immunoblotting. […] Estimations were done for the binding interfaces involving TopBP1-GINI (blue) and TopBP1-BRCT4 (red), both together and alone. c Coomassie-stained SDS PAGE gel of the indicated recombinant TopBP1-BRCT0-5 proteins (Figs. 1a(ii) and 3a). d The indicated relative amounts (100%–10%) of immunodepleted and non-depleted Xenopus egg extracts (Xtract) were analysed by immunoblotting using anti-TopBP1 #2 and other indicated antibodies. TopBP1 antibodies #1 and #2, or unspecific IgG (mock) were used for immunodepletions. Ponc, ponceau staining. Error bars, SEM, n = 3. The experiments were done more than three times (i) or twice (ii) with similar results. e, f Replication analyses (radioactive nucleotide incorporation) using Xenopus egg extracts immunodepleted with antibodies anti-TopBP1#1, #2 or unspecific IgG (mock). Buffer (buf), recombinant wild-type (WT) or mutant TopBP1-BRCT0-5-strep (c) were added. Diamonds, Individual data points of n = 3 independent experiments, Error bars, SEM. Source data are provided as a Source data file.\nXenopus laevis egg extracts were prepared from metaphase II arrested eggs as described in ref. [79]. After washing with MMR (100 mM NaCl, 2 mM KCl, 1 mM MgCl2, 2 mM CaCl2, 0.1 mM EDTA, 5 mM HEPES–NaOH, pH 7.8) eggs were dejellied (2% cysteine w:v in H2O, pH 7.8 with NaOH). Eggs were rinsed in XBE2 (100 mM KCl, 2 mM MgCl2, 0.1 mM CaCl2, 1.71% w:v sucrose, 5 mM K-EGTA, 10 mM HEPES–KOH, pH 7.7). Then, the eggs were transferred into centrifuge tubes containing 1 ml XBE2 + 10 µg/ml protease inhibitor (aprotinin Sigma A6279, leupeptin Merck 108975, pepstatin Carl Roth 2936.1) + 100 µg/ml cytochalasin D (Sigma C8273). For packing, eggs were centrifuged for 1 min at 1400 × g at 16 °C in a swingout rotor. Excess buffer, activated and apoptotic eggs were removed before crushing the eggs at 16,000 × g for 10 min at 16 °C. The extract was collected with a 20 G needle and supplemented with 10 µg/ml cytochalasin D, 10 µg/ml protease inhibitors, 1:80 dilution of energy regenerator (1M phosphocreatine K salt, 600 µg/ml creatine phosphokinase in 10 mM HEPES–KOH pH 7.6) and LFB1/50 (10% w-v sucrose, 50 mM KCl, 2 mM MgCl2, 1 mM EGTA, 2 mM DTT, 20 mM K2HPO4/KH2PO4 pH 8.0, 40 mM HEPES–KOH, pH 8.0) to 15% (v:v). The extract was cleared at 84,000 × g at 4 °C for 20 min in a swingout rotor. The cytoplasmatic layer was collected and supplemented with 2% glycerol v:v. […]"}, "53BP1": {"test_system": "53BP1", "experiment": "Pulldown of endogenous 53BP1 from 293T cell lysates with recombinant TopBP1", "format": "binding", "conditions": "pulldown from 293T cell lysates, immunoblotting; 2 h, 4 °C", "method": "For pulldown assays from soluble lysates of non-transfected 293T cells, 5 µl streptactin Sepharose HP (Cytiva, 28935599) beads were coupled with 10 µg recombinant TopBP1-1-766-strep-WT or mutants in coupling buffer (20 mM HEPES pH 8.0, 150 mM NaCl, 0.1% (v/v) Tween-20, 0.5 mM TCEP, 2% (v/v) glycerol) for 45 min at 4 °C before washing two times with coupling buffer and then once in cell lysis buffer (20 mM HEPES pH 8.0, 150 mM NaCl, 0.1% (v/v) Tween-20, 0.5 mM TCEP, 2% (v/v) glycerol, protease inhibitor cocktail (Roche Complete protease inhibitor cocktail, 05056489001). Control pulldowns were done with Flag-peptide-coupled beads or, when indicated, using GINS-coupled beads and the non-GINS binding TopBP1-Gcc-B4mut. 293T cells were lysed in ten times pellet volume of cell lysis buffer, and centrifuged at 20,000 × g for 15 min at 4 °C. Soluble lysate from cells equivalent to 50% of a 15 cm tissue culture plate was added to the TopBP1-coupled beads and incubated for 2 h at 4 °C rotating. Beads were washed three times with 5 min incubation in lysis buffer and boiled in 50 µl Laemmli buffer before SDS PAGE.\nSupplementary Fig. 6: Experiments to control quality of recombinant protein mutants. a: Recombinant TopBP1 point mutants of the GINI and BRCT4 regions bind 53BP1 phospho-dependently. […] Lysates and pulldowns were analysed by immunoblofng. […]"}}, "note": "Residue numbers refer to the chain shown, from its start.", "data": [{"molecule": "B1", "values": [{"measurement": "ability to support replication (words)", "setting": "[1]", "value": "effectively rescued replication in depleted extracts"}]}, {"molecule": "B2", "values": [{"measurement": "binding to (phospho-)53BP1", "setting": "53BP1", "value": "could still interact with phospho-53BP1"}, {"measurement": "ability to support replication (words)", "setting": "[1]", "value": "not detectably compromised in their abilities to support replication"}, {"measurement": "ability to support replication (words)", "setting": "[1]; listed as B4mut", "value": "do not aﬀect grossly the replica+on-inducing"}]}, {"molecule": "B3", "values": [{"measurement": "binding to (phospho-)53BP1", "setting": "53BP1", "value": "no effect on binding to 53BP1"}, {"measurement": "reduction in nucleotide incorporation", "setting": "[1]; 120 min time point, TopBP1-immunodepleted Xenopus egg extract, 6 ng/µl protein", "value": 55, "unit": "%"}]}]}
